Measurements from US20240116985A1 (published 2024).
Starred links: 1 amine or outer side, 2 acyl side, 3 side chain; linkers in the order of their positions; H or OH if unused. Positions of bridges follow the written chain, without caps; N, C: chain ends. Non-standard residues stand in square brackets, D forms with d. Primed or numbered codes have the meaning given here. PyrS2″ = (S)-3-amino-1-((pent-4-en-1-yloxy)carbonyl)pyrrolidine-3-carboxylic acid (stapling residue), C=CCCCOC(=O)N1CC[C@@](N[*:1])(C(=O)[*:2])C1; B5(18) = 2,2-bis(4-pentenyl)glycine (2-amino-2-(pent-4-en-1-yl)hept-6-enoic acid), stitching residue, C=CCCCC(CCCC=C)(N[*:1])C(=O)[*:2]; TfeGA = (S)-2-amino-3-((carboxymethyl)(2,2,2-trifluoroethyl)amino)propanoic acid, O=C([C@H](CN(CC(=O)[*:3])CC(F)(F)F)N[*:1])[*:2]; B5(3) = 2,2-bis(4-pentenyl)glycine (stitching residue), C=CCCCC(CCCC=C)(N[*:1])C(=O)[*:2]; Phe(3-CF3) = N[C@@H](Cc1cccc(C(F)(F)F)c1)C(=O)O; Phe(3-OMe) = COc1cccc(C[C@H](N)C(=O)O)c1; Phe(2-Cl) = N[C@@H](Cc1ccccc1Cl)C(=O)O; 2Nal = N[C@@H](Cc1ccc2ccccc2c1)C(=O)O; Bta = N[C@@H](Cc1csc2ccccc12)C(=O)O; αAllylPro = C=CC[C@@]1(C(=O)O)CCCN1; tBuAla = CC(C)(C)C[C@H](N)C(=O)O; Cha = N[C@@H](CC1CCCCC1)C(=O)O; TfeGA″ = not defined here

T1: B-cat-Halo (UniProt P35222 1-781)
T1 sequence (looked up): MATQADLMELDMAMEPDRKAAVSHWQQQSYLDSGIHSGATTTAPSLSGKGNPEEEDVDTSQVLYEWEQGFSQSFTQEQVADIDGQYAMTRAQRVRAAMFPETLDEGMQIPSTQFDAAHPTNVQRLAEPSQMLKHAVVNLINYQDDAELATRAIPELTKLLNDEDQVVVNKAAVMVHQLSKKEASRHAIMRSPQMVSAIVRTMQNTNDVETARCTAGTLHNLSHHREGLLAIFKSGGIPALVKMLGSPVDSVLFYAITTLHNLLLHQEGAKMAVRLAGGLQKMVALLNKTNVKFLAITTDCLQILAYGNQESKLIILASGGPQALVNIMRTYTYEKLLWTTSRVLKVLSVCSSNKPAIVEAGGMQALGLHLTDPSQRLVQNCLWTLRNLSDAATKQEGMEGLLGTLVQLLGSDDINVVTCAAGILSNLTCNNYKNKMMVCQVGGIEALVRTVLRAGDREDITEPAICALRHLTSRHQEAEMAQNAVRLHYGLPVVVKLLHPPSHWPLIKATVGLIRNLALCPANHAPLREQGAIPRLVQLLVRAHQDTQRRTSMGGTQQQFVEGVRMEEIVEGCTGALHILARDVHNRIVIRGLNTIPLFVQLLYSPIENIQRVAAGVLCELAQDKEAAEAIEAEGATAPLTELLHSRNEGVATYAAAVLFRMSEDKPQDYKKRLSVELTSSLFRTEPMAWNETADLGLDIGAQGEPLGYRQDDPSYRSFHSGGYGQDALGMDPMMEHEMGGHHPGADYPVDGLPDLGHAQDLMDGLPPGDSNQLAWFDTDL

T2: B-cat-Halo (UniProt P35222 1-781)
T2 sequence (looked up): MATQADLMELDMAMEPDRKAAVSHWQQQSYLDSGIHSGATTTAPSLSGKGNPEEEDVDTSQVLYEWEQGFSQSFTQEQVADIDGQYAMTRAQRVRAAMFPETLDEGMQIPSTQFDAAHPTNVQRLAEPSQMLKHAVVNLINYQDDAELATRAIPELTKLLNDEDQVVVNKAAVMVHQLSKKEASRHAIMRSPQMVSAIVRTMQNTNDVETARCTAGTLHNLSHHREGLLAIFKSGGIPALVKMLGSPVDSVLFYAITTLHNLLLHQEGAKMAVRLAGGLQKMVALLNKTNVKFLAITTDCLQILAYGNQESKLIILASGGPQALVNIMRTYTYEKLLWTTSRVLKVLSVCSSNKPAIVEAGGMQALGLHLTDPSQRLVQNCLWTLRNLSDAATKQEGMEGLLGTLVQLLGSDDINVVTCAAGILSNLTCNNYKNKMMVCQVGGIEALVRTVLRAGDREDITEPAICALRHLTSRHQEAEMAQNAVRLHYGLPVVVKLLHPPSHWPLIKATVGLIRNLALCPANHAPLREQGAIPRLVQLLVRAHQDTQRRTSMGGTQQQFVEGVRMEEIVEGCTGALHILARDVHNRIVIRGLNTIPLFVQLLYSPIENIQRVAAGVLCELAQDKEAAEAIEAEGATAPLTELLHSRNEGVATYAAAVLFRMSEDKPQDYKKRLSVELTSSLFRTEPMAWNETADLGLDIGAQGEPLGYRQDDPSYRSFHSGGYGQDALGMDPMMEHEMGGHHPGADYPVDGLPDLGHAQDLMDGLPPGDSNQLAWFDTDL


molecular target: T1, B-cat-Halo; test: cell-based or functional assay

Row | NanoBRET Abs IC50 [µM] | Binder
1 | 10.6 | Ac-[αAllylPro]D[tBuAla][B5(18)]D[TfeGA]ASFN[PyrS2″][Phe(2-Cl)][Bta]Q-NH2 (staple 1-4, 4-11) [I-1004]
2 | 13.3 | Ac-[αAllylPro]D[tBuAla][B5(18)]D[TfeGA]IAFN[PyrS2″][Phe(2-Cl)][Bta]Q-NH2 (staple 1-4, 4-11) [I-1010]
3 | > 20 | Ac-[αAllylPro]D[tBuAla][B5(18)]D[TfeGA]AKFN[PyrS2″][Phe(2-Cl)][Bta]Q-NH2 (staple 1-4, 4-11) [I-1006]
4 | 12.4 | Ac-[αAllylPro]D[tBuAla][B5(18)]DDAAFT[PyrS2″][Phe(2-Cl)][Bta]Q-NH2 (staple 1-4, 4-11) [I-1013]

More lines, now with the values behind:

Row | Binder | NanoBRET Abs IC50 [µM]
5 | Ac-[αAllylPro]D[tBuAla][B5(18)]D[TfeGA]KAFN[PyrS2″][Phe(2-Cl)][Bta]Q-NH2 (staple 1-4, 4-11) [I-1011] | 20.8
6 | Ac-[αAllylPro]D[tBuAla][B5(18)]DNAAFT[PyrS2″][Phe(2-Cl)][Bta]S-NH2 (staple 1-4, 4-11) [I-1016] | 21.4
7 | Ac-[αAllylPro]D[tBuAla][B5(18)]D[TfeGA″]SAFN[PyrS2″][Phe(2-Cl)][Bta]Q-NH2 (staple 1-4, 4-11; reading uncertain) [I-1009] | 33.3
8 | Ac-[αAllylPro]D[tBuAla][B5(18)]D[TfeGA]LAFN[PyrS2″][Phe(2-Cl)][Bta]Q-NH2 (staple 1-4, 4-11) [I-1007] | 24.9
9 | Ac-[αAllylPro]D[tBuAla][B5(18)]DNAAFT[PyrS2″][Phe(2-Cl)][Bta]Q-NH2 (staple 1-4, 4-11) [I-1014] | 14.3
10 | Ac-[αAllylPro]D[tBuAla][B5(18)]DNAAFS[PyrS2″][Phe(2-Cl)][Bta]Q-NH2 (staple 1-4, 4-11) [I-1018] | 25.8
11 | Ac-[αAllylPro]D[tBuAla][B5(18)]D[TfeGA]ALFN[PyrS2″][Phe(2-Cl)][Bta]Q-NH2 (staple 1-4, 4-11) [I-1002] | 29.8

molecular target: T2, B-cat-Halo; test: cell-based or functional assay

Row | NanoBRET Abs IC50 [µM] | Binder
12 | 9.2 | Ac-[αAllylPro]D[tBuAla][B5(3)]DDAA[Phe(3-OMe)]L[PyrS2″][Phe(2-Cl)][Bta]Q-NH2 (staple 1-4, 4-11 (inferred)) [I-1121]
13 | 29.5 | Ac-[αAllylPro]D[Cha][B5(3)]DDAA[Phe(3-OMe)]S[PyrS2″][Phe(2-Cl)][Bta]Q-NH2 (staple 1-4, 4-11 (inferred)) [I-1118]

Further lines, the binder ahead of its results:

Row | Binder | NanoBRET Abs IC50 [µM]
14 | Ac-[αAllylPro]D[Cha][B5(3)]DDAAFS[PyrS2″][Phe(2-Cl)][Bta]Q-NH2 (staple 1-4, 4-11 (inferred); not fully specified (residue 9); printed as Ac-PL3-Asp-Cha-B5-Asp-Asp-Ala-Ala-4F3MeF-Ser-PyrS2-2C1F-BztA-Gln-NH2) [I-1120] | > 20
15 | Ac-[αAllylPro]D[2Nal][B5(3)]DDAAFT[PyrS2″][2C1F][Bta]S-NH2 (staple 1-4, 4-11) [I-1115] | 24.3
16 | Ac-[αAllylPro]D[Cha][B5(3)]DDAA[Phe(3-CF3)]S[PyrS2″][Phe(2-Cl)][Bta]Q-NH2 (staple 1-4, 4-11 (inferred)) [I-1119] | 19.4
